Usually stoichiometry N stands for the number of molecules, sites or subunits per partner or assembly.

“And” between values parts separate entries of the source, which are not always exact repeats. Equal entries are not always repeated. Where two headings read alike, the source gives them in different places.

In PMC4546514 one finds stoichiometry N data, which are given here for 1 substance.

Assay [1] deals with purified recombinant Ded1p (S. cerevisiae) (UniProt P06634). Nature of the assay: cross-linking.
Assay [2] has the same target. Nature of the assay: cross-linking. This is another data set of the same source.

Regarding “purified recombinant Ded1p (from UniProt P06634 1-604) (natural protein; other documents disagree on this pair)”, the stoichiometry N was 2 and 3 in assay [1]; less than 5 in assay [2].
